Patent publication US20240165282A1, “CONFORMATIONAL CONSTRAINED SOMATOSTATIN RECEPTOR 3 PEPTIDE LIGANDS AND THEIR CONJUGATES AND USES THEREOF” (STARGET PHARMA LTD., priority 2021, published 2024)
*1 amine or outer side, *2 acyl side, *3 side chain or, on linkers, in order; H or OH if unused. Bridges are numbered along the chain shown (N, C = ends). [ ]: non-standard residue; d: D form. The star is where a group is joined. DOTA = O=C(O)CN1CCN(CC(=O)O)CCN(CC(=O)*)CCN(CC(=O)O)CC1; N(2-mercaptoethyl)Gly = O=C(CN(CCS[*:3])[*:1])[*:2]

What was measured:
MLNR (human) = MLNR (human) (UniProt O43193); assay: cell-based or functional assay
AVPR1B (human) = AVPR1B (human) (UniProt P47901); assay: cell-based or functional assay
NPFFR1 (human) = NPFFR1 (human) (UniProt Q9GZQ6); assay: cell-based or functional assay
HCRTR2 (human) = HCRTR2 (human) (UniProt O43614); assay: cell-based or functional assay
GPR109B (human) = GPR109B (human) (UniProt P49019); assay: cell-based or functional assay
SCTR (human) = SCTR (human) (UniProt P47872); assay: cell-based or functional assay
NMU1R (human) = NMU1R (human) (UniProt Q9HB89); assay: cell-based or functional assay
GPR103 (human) = GPR103 (human) (UniProt Q96P65); assay: cell-based or functional assay
PTGER4 (human) = PTGER4 (human) (UniProt P35408); assay: cell-based or functional assay
PTGER4 (human), sequence (P35408 whole entry): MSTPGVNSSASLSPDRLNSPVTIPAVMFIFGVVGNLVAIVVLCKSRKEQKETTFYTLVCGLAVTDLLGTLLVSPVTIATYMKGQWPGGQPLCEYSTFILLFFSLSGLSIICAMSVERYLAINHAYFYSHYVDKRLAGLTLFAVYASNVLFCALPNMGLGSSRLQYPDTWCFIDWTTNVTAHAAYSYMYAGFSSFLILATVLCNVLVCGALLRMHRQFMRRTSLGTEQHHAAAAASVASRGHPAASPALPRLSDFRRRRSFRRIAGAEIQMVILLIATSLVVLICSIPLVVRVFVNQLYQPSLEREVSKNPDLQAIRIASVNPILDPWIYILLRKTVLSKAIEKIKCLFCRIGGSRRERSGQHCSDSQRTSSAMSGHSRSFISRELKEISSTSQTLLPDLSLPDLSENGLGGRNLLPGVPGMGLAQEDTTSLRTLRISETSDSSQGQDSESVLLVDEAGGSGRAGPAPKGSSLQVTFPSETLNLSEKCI

NTSR1 (human) = NTSR1 (human) (UniProt P30989); assay: cell-based or functional assay
P2RY4 (human) = P2RY4 (human) (UniProt P51582); assay: cell-based or functional assay
HRH2 (human) = HRH2 (human) (UniProt P25021); assay: cell-based or functional assay
VIPR2 (human) = VIPR2 (human) (UniProt P41587); assay: cell-based or functional assay
PTGER3 (human) = PTGER3 (human) (UniProt P43115); assay: cell-based or functional assay
NPSR1b (human) = NPSR1b (human) (UniProt Q6W5P4); assay: cell-based or functional assay
CHRM1 (human) = CHRM1 (human) (UniProt P11229); assay: cell-based or functional assay
CHRM1 (human), sequence (P11229 whole entry): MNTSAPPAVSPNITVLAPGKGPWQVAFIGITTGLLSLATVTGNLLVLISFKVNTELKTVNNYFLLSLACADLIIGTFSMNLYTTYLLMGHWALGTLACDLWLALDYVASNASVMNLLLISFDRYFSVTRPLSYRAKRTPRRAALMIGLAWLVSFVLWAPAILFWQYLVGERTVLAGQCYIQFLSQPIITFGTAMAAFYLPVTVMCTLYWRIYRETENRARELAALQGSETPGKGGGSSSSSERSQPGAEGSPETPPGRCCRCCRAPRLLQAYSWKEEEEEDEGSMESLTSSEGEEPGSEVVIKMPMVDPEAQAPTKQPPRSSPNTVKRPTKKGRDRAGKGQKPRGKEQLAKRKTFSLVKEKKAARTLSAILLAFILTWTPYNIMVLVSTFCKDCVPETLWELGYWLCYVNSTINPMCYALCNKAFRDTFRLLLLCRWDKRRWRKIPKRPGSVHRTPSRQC

GRPR (human) = GRPR (human) (UniProt P30550); assay: cell-based or functional assay
LTB4R (human) = LTB4R (human) (UniProt Q15722); assay: cell-based or functional assay
EDNRA (human) = EDNRA (human) (UniProt P25101); assay: cell-based or functional assay
EDNRA (human), sequence (P25101 21-427): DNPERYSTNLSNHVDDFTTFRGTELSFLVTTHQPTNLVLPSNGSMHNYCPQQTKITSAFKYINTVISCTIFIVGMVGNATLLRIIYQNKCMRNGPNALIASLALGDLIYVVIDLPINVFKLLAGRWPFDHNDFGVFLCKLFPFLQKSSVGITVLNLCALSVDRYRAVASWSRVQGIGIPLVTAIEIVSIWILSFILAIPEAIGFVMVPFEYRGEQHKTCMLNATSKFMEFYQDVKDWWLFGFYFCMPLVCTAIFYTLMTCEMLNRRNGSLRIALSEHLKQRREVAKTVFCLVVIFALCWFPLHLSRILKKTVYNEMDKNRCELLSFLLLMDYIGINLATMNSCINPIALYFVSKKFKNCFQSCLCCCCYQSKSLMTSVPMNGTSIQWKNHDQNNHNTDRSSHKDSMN

F2RL3 (human) = F2RL3 (human) (UniProt Q96RI0); assay: cell-based or functional assay
F2RL3 (human), sequence (Q96RI0 48-385): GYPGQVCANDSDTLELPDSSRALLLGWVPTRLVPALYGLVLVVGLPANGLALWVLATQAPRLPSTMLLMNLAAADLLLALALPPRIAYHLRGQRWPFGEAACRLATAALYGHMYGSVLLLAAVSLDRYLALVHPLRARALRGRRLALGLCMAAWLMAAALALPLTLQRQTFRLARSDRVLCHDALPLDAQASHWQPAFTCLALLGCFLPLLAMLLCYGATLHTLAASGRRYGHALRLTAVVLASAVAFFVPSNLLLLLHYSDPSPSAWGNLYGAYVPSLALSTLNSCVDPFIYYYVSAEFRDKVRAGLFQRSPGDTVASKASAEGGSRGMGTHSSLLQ

DRD2S (human) = DRD2S (human) (UniProt P14416); assay: cell-based or functional assay
[1] = target: human cloned somatostatin receptor 1 (human) (UniProt P30872); assay: cell-based or functional assay
human cloned somatostatin receptor 1 (human), sequence (P30872 whole entry): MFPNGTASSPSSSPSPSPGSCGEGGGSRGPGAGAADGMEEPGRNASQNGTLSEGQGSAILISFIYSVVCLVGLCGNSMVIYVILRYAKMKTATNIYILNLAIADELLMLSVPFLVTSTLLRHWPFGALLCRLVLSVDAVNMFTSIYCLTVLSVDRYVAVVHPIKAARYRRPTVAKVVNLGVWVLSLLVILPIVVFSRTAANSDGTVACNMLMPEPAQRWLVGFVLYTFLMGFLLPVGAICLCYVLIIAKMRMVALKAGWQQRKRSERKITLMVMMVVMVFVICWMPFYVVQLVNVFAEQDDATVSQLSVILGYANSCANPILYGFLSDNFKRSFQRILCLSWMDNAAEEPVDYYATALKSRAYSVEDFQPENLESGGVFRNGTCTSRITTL

OPRK1 (human) = OPRK1 (human) (UniProt P41145); assay: cell-based or functional assay
MC1R (human) = MC1R (human) (UniProt Q01726); assay: cell-based or functional assay
MRGPRX2 (human) = MRGPRX2 (human) (UniProt Q96LB1); assay: cell-based or functional assay
MC5R (human) = MC5R (human) (UniProt P33032); assay: cell-based or functional assay
MC5R (human), sequence (P33032 whole entry): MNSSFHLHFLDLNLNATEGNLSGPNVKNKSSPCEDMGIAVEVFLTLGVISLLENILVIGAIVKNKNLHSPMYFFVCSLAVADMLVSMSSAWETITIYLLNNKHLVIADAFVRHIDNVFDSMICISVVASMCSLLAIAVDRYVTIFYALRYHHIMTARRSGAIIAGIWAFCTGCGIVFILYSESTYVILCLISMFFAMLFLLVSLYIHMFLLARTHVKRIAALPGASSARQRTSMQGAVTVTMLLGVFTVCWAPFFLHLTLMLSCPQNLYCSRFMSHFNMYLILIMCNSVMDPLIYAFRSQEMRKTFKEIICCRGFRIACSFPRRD

ADCYAP1R1 (human) = ADCYAP1R1 (human) (UniProt P41586); assay: cell-based or functional assay
MC4R (human) = MC4R (human) (UniProt P32245); assay: cell-based or functional assay
MC4R (human), sequence (P32245 whole entry): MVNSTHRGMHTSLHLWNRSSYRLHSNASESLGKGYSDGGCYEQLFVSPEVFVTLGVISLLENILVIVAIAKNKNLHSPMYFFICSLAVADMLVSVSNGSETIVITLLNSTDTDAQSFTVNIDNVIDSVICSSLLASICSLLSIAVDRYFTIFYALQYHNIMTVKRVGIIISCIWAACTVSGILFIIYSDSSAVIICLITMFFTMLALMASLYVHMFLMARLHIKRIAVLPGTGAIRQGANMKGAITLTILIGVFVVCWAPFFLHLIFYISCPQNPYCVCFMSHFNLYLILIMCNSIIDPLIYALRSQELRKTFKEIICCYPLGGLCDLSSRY

GALR1 (human) = GALR1 (human) (UniProt P47211); assay: cell-based or functional assay
PTAFR (human) = PTAFR (human) (UniProt P25105); assay: cell-based or functional assay
CNR1 (human) = CNR1 (human) (UniProt P21554); assay: cell-based or functional assay
CCR10 (human) = CCR10 (human) (UniProt P46092); assay: cell-based or functional assay
CCR10 (human), sequence (P46092 whole entry): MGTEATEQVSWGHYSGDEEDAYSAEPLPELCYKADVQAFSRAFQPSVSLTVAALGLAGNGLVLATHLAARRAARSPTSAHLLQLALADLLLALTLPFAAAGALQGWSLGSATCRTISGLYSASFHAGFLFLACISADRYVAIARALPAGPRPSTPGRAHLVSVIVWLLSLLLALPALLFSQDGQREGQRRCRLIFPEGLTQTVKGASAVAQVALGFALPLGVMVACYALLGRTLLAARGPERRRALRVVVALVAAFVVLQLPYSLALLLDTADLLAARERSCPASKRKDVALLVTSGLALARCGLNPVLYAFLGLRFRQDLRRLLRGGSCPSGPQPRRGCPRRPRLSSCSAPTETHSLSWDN

P2RY1 (human) = P2RY1 (human) (UniProt P47900); assay: cell-based or functional assay
(CR)R-RAMP3 (human) = (CR)R-RAMP3 (human) (UniProt P30988); assay: cell-based or functional assay
CXCR4 (human) = CXCR4 (human) (UniProt P61073); assay: cell-based or functional assay
GALR2 (human) = GALR2 (human) (UniProt O43603); assay: cell-based or functional assay
P2RY2 (human) = P2RY2 (human) (UniProt P41231); assay: cell-based or functional assay
HRH3 (human) = HRH3 (human) (UniProt Q9Y5N1); assay: cell-based or functional assay
FPRL1 (human) = FPRL1 (human) (UniProt P25090); assay: cell-based or functional assay
P2RY11 (human) = P2RY11 (human) (UniProt Q96G91); assay: cell-based or functional assay
CHRM5 (human) = CHRM5 (human) (UniProt P08912); assay: cell-based or functional assay
CHRM5 (human), sequence (P08912 whole entry): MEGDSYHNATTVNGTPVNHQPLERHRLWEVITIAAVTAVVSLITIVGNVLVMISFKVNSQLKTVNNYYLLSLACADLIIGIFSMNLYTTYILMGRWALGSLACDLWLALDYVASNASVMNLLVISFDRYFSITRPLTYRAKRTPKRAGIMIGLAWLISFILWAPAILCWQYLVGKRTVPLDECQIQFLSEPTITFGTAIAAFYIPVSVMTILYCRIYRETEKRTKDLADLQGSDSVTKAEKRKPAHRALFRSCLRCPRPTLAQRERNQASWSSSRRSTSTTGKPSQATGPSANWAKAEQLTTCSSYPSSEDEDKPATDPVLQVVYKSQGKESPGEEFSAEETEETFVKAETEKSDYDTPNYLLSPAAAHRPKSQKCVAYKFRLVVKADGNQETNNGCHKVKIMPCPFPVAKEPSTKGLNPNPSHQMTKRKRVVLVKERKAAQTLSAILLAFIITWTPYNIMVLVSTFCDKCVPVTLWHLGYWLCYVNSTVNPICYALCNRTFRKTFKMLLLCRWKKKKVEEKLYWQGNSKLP

EDG7 (human) = EDG7 (human) (UniProt Q9UBY5); assay: cell-based or functional assay
CRHR2 (human) = CRHR2 (human) (UniProt Q13324); assay: cell-based or functional assay
CHRM3 (human) = CHRM3 (human) (UniProt P20309); assay: cell-based or functional assay
BDKRB1 (human) = BDKRB1 (human) (UniProt P46663); assay: cell-based or functional assay
PRLHR (human) = PRLHR (human) (UniProt P49683); assay: cell-based or functional assay
PRLHR (human), sequence (P49683 whole entry): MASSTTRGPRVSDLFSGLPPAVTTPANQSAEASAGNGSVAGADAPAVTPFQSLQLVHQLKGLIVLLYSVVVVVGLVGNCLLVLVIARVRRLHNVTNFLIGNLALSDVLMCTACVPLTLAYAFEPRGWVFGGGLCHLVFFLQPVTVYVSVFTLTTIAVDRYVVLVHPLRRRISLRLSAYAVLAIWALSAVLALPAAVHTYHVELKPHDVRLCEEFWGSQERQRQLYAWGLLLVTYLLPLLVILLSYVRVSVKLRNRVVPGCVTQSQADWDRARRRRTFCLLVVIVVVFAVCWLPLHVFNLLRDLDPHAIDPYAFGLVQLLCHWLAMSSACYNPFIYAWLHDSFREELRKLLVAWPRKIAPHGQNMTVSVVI

MCHR1 (human) = MCHR1 (human) (UniProt Q99705); assay: cell-based or functional assay
OPRD1 (human) = OPRD1 (human) (UniProt P41143); assay: cell-based or functional assay
AGTRL1 (human) = AGTRL1 (human) (UniProt P35414); assay: cell-based or functional assay
NMBR (human) = NMBR (human) (UniProt P28336); assay: cell-based or functional assay
CCR2 (human) = CCR2 (human) (UniProt P41597); assay: cell-based or functional assay
AVPR1A (human) = AVPR1A (human) (UniProt P37288); assay: cell-based or functional assay
HTR5A (human) = HTR5A (human) (UniProt P47898); assay: cell-based or functional assay
[2] = target: human cloned somatostatin receptor 5 (human) (UniProt P35346); assay: 125I-Tyr11-SRIF-14 displacement
human cloned somatostatin receptor 5 (human), sequence (P35346 whole entry): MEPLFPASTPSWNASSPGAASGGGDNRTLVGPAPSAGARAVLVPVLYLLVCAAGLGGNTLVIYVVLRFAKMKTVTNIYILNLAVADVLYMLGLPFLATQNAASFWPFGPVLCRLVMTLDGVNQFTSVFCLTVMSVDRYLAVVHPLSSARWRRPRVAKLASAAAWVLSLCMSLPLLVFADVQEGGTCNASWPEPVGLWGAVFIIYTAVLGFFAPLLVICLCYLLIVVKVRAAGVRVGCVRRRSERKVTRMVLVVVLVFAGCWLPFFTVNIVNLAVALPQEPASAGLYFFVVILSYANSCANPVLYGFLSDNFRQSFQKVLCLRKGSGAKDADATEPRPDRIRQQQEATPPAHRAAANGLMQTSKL

[3] = target: human cloned somatostatin receptor 2 (human) (UniProt P30874); assay: 125I-Tyr11-SRIF-14 displacement
human cloned somatostatin receptor 2 (human), sequence (P30874 whole entry): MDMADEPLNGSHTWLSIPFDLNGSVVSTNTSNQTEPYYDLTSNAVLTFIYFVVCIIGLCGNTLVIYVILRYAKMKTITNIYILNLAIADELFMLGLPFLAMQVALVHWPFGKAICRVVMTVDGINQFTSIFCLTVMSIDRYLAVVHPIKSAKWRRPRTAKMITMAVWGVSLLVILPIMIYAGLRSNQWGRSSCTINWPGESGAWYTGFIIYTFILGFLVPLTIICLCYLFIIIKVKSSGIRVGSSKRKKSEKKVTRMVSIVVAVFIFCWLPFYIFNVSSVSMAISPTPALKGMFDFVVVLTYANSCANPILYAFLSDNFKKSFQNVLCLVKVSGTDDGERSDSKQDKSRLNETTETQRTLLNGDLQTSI

[4] = target: human cloned somatostatin receptor 1 (human) (UniProt P30872); assay: 125I-Tyr11-SRIF-14 displacement
[5] = target: human cloned somatostatin receptor 3 (human) (UniProt P32745); assay: 125I-Tyr11-SRIF-14 displacement

B1: SEQ ID NO: 4 (peptide)
peptide: {DOTA}-[dF]RCF[dW]KTF[N(2-mercaptoethyl)Gly]-NH2
modifications: disulfide 3-9; also: Ga complex of DOTA
- % Activity (agonist mode, 1 µM) (MLNR (human)): 1%
- % Activity (agonist mode, 1 µM) (AVPR1B (human)): 1%
- % Activity (agonist mode, 1 µM) (NPFFR1 (human)): -2%
- % Activity (agonist mode, 1 µM) (HCRTR2 (human)): 0%
- % Activity (agonist mode, 1 µM) (GPR109B (human)): -3%
- % Activity (agonist mode, 1 µM) (SCTR (human)): 0%
- % Activity (agonist mode, 1 µM) (NMU1R (human)): 1%
- % Activity (agonist mode, 1 µM) (GPR103 (human)): 4%
- % Activity (agonist mode, 1 µM) (PTGER4 (human)): -2%
- % Activity (agonist mode, 1 µM) (NTSR1 (human)): 3%
- % Activity (agonist mode, 1 µM) (P2RY4 (human)): 1%
- % Activity (agonist mode, 1 µM) (HRH2 (human)): -4%
- % Activity (agonist mode, 1 µM) (VIPR2 (human)): -1%
- % Activity (agonist mode, 1 µM) (PTGER3 (human)): 1%
- % Activity (agonist mode, 1 µM) (NPSR1b (human)): -1%
- % Activity (agonist mode, 1 µM) (CHRM1 (human)): -1%
- % Activity (agonist mode, 1 µM) (GRPR (human)): 0%
- % Activity (agonist mode, 1 µM) (LTB4R (human)): -1%
- % Activity (agonist mode, 1 µM) (EDNRA (human)): -1%
- % Activity (agonist mode, 1 µM) (F2RL3 (human)): 2%
- % Activity (agonist mode, 1 µM) (DRD2S (human)): 0%
- % Activity (agonist mode, 1 µM) [1]: 32%
- % Activity (agonist mode, 1 µM) (OPRK1 (human)): -2%
- % Activity (agonist mode, 1 µM) (MC1R (human)): 1%
- % Activity (agonist mode, 1 µM) (MRGPRX2 (human)): 1%
- % Activity (agonist mode, 1 µM) (MC5R (human)): -5%
- % Activity (agonist mode, 1 µM) (ADCYAP1R1 (human)): 0%
- % Activity (agonist mode, 1 µM) (MC4R (human)): 0%
- % Activity (agonist mode, 1 µM) (GALR1 (human)): 2%
- % Activity (agonist mode, 1 µM) (PTAFR (human)): -2%
- % Activity (agonist mode, 1 µM) (CNR1 (human)): -1%
- % Activity (agonist mode, 1 µM) (CCR10 (human)): -2%
- % Activity (agonist mode, 1 µM) (P2RY1 (human)): -2%
- % Activity (agonist mode, 1 µM) ((CR)R-RAMP3 (human)): -13%
- % Activity (agonist mode, 1 µM) (CXCR4 (human)): 3%
- % Activity (agonist mode, 1 µM) (GALR2 (human)): -4%
- % Activity (agonist mode, 1 µM) (P2RY2 (human)): 2%
- % Activity (agonist mode, 1 µM) (HRH3 (human)): -2%
- % Activity (agonist mode, 1 µM) (FPRL1 (human)): 0%
- % Activity (agonist mode, 1 µM) (P2RY11 (human)): 0%
- % Activity (agonist mode, 1 µM) (CHRM5 (human)): 5%
- % Activity (agonist mode, 1 µM) (EDG7 (human)): 0%
- % Activity (agonist mode, 1 µM) (CRHR2 (human)): 0%
- % Activity (agonist mode, 1 µM) (CHRM3 (human)): 1%
- % Activity (agonist mode, 1 µM) (BDKRB1 (human)): -5%
- % Activity (agonist mode, 1 µM) (PRLHR (human)): 1%
- % Activity (agonist mode, 1 µM) (MCHR1 (human)): -1%
- % Activity (agonist mode, 1 µM) (OPRD1 (human)): -1%
- % Activity (agonist mode, 1 µM) (AGTRL1 (human)): -1%
- % Activity (agonist mode, 1 µM) (NMBR (human)): 1%
- % Activity (agonist mode, 1 µM) (CCR2 (human)): 1%
- % Activity (agonist mode, 1 µM) (AVPR1A (human)): 0%
- % Activity (agonist mode, 1 µM) (HTR5A (human)): 0%
- IC50 [2]: 140 nM
- Ki [2]: 78 nM
- IC50 [3]: 56 nM
- Ki [3]: 30 nM
- IC50 [4]: > 1000 nM
- Ki [4]: 880 nM
- IC50 [5]: 1 nM
